Test results published in publication PMC12325741 (2025).
Where two headings read alike, the source gives them in different places.

Assays:
Assay in all cases: SPR
[1] = biological target: T1, CK19 (ligand protein of the Biacore assay) (UniProt P08727 1-400)
T1 chain: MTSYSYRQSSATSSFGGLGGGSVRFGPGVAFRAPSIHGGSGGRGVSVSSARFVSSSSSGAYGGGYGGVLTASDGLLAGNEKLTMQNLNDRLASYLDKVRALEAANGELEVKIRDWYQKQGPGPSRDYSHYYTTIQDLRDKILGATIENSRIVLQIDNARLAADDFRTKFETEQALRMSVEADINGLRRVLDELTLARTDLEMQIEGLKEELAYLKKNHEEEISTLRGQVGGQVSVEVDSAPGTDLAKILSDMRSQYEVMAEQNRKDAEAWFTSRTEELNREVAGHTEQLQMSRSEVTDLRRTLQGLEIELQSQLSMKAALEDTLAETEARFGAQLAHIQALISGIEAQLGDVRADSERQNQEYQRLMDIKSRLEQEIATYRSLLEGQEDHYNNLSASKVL

[2] = biological target: T1, CK19 (ligand protein of the Biacore …)
[3] = biological target: T1, CK19 (ligand protein of the Biacore …)
[4] = biological target: T1, CK19 (ligand protein of the Biacore …)

B1: NICD2-His (domain or fragment)
chain: VIMAKRKRKHGSLWLPEGFTLRRDASNHKRREPVGQDAVGLKNLSVQVSEANLIGTGTSEHWVDDEGPQPKKVKAEDEALLSEEDDPIDRRPWTQQHLEAADIRRTPSLALTPPQAEQEVDVLDVNVRGPDGCTPLMLASLRGGSSDLSDEDEDAEDSSANIITDLVYQGASLQAQTDRTGEMALHLAARYSRADAAKRLLDAGADANAQDNMGRCPLHAAVAADAQGVFQILIRNRVTDLDARMNDGTTPLILAARLAVEGMVAELINCQADVNAVDDHGKSALHWAAAVNNVEATLLLLKNGANRDMQDNKEETPLFLAAREGSYEAAKILLDHFANRDITDHMDRLPRDVARDRMHHDIVRLLDEYNVTPSPPGTVLTSALSPVICGPNRSFLSLKHTPMGKKSRRPSAKSTMPTSLPNLAKEAKDAKGSRRKKSLSEKVQLSESSVTLSPVDSLESPHTYVSDTTSSPMITSPGILQASPNPMLATAAPPAPVHAQHALSFSNLHEMQPLAHGASTVLPSVSQLLSHHHIVSPGSGSAGSLSRLHPVPVPADWMNRMEVNETQYNEMFGMVLAPAEGTHPGIAPQSRPPEGKHITTPREPLPPIVTFQLIPKGSIAQPAGAPQPQSTCPPAVAGPLPTMYQIPEMARLPSVAFPTAMMPQQDGQVAQTILPAYHPFPASVGKYPTPPSQHSYASSNAAERTPSHSGHLQGEHPYLTPSPESPDQWSSSSPHSASDWSDVTTSPTPGGAGGGQRGPGTHMSEPPHNNMQVYA
koff [1]: 0.0854 s⁻¹
Kd [2]: 635 nM

B2: MANF (analyte of the Biacore assay) (natural protein)
chain: LRPGDCEVCISYLGRFYQDLKDRDVTFSPATIENELIKFCREARGKENRLCYYIGATDDAATKIINEVSKPLAHHIPVEKICEKLKKKDSQICELKYDKQIDLSTVDLKKLRVKELKKILDDWGETCKGCAEKSDYIRKINELMPKYAPKAASARTDL
Kd [3]: 214 nM
koff [4]: 0.0117 s⁻¹
